The values that follow come from patent US20090298083.

For data set [1], the target named is GST-Pax3 non-phosphorylated (UniProt P23760). Briefly: EMSA. The following applies: unphosphorylated; value inferred from nearly 10-fold increase on CKII phosphorylation.
Data set [2] addresses GST-Pax3 phosphorylated at Ser205 by CKII (UniProt P23760). Briefly: EMSA. The following applies: Pax3 phosphorylated at Ser205 by CKII; reference for maximal binding; nearly 10-fold more binding than unphosphorylated.
The next data set deals with FLAG-Pax3 (UniProt P23760). Put plainly: cell_activity. The following applies: CAT assay, proliferating mouse primary myoblasts; activity completely lost after 12 h differentiation.
A further data set relates to FLAG-Pax3-FOXO1 fusion. Briefly: cell_activity. The following applies: CAT assay, proliferating mouse primary myoblasts; no significant change during differentiation.

FLAG-Pax3, sequence (P23760 other isoform, or with tags, fused parts or gaps): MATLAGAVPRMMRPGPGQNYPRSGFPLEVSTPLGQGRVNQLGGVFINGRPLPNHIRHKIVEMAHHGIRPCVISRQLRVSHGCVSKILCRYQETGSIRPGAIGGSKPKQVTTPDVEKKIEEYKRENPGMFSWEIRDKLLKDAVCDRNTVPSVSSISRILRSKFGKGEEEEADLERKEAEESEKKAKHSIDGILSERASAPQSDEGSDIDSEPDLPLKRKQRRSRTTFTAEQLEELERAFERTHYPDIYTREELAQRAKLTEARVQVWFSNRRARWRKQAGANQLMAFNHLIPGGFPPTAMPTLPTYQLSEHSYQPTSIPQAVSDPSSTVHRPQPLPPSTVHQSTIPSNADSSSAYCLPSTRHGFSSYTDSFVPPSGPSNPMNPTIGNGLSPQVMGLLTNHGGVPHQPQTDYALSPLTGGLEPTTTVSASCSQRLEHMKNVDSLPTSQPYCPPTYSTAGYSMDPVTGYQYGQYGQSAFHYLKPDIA
GST-Pax3 phosphorylated at Ser205 by CKII, sequence (P23760 other isoform, or with tags, fused parts or gaps): as above
GST-Pax3 non-phosphorylated, sequence (P23760 other isoform, or with tags, fused parts or gaps): as above

“oligonucleotide with paired- and homeodomain recognition sequences”: the binding signal was 10% in data set [1] and 100% in data set [2].
As for “(PRS-9)TK-CAT reporter, six tandem repeats of Pax3 paired and homeodomain recognition sequence”, the activity (fold over background) is 2 with FLAG-Pax3 and 4 in the data set on FLAG-Pax3-FOXO1 fusion.
